Test results reported in publication PMC4821239, “Molecular architecture of the Dam1 complex–microtubule interaction” (Open Biology, 2016).
One block for each binder: values may come before it.

B3: Spc19 (natural protein, budding yeast, UniProt Q03954 1-165, looked up)
chain: MTDALEQSVLALEGTVSVLKDSVESLKCANEPSTNLASTMLQTKRVFRLVPEYDVERSKLDLIEEVEPLVRTLGDKLRKSMGRMQRELDTLQQTYELNDLRLKKNISMDDDDALNSPDMGQEYEGRDADDVVMMASSTNEELEELKKLKEKKKQLENKLEILKQK
notes: Spc19, subunit of the budding yeast Dam1 complex; Subunit inside the recombinant 10-subunit complex; also called Sp19; source: expressed and purified as part of the Dam1 complex as described [3]
B5: Dad2 (natural protein, budding yeast, UniProt P36162 1-133, looked up)
chain: MDSIDEQIAIKRKELQSLQKITSLTDGLKIQLTELNEQIKEMGMNADSVAQLMNNWDSIINNISQASLGLLQYAEGDYEIGPWKDSKKKESEQSNETGLEAQENDKNDEDNDEDEDLVPLPETMVRIRVDGNE
notes: Dad2, subunit of the budding yeast Dam1 complex; Subunit inside the recombinant 10-subunit complex; source: expressed and purified as part of the Dam1 complex as described [3]
B6: Dad4 (natural protein, budding yeast, UniProt P69851 1-72, looked up)
chain: MENPHEQVQANILSRIIGNVKRLNESVAILNQELVTINNRNKNLEIMGAICDNYHSSVQFNLEATNNKKPPL
notes: Dad4, subunit of the budding yeast Dam1 complex; Subunit inside the recombinant 10-subunit complex; source: expressed and purified as part of the Dam1 complex as described [3]

Tests used:
Dam1 [1] = molecular target: T1, Dam1 (budding yeast, UniProt P53267 1-343); experiment: cross-linking; BS3, size-exclusion fraction of the Dam1 complex Duo1Δ184 eluting as the full complex, mass spectrometry; details: both partners purified
T1 construct: Dam1, subunit of the budding yeast Dam1 complex; Subunit inside the recombinant 10-subunit complex; also called Dam1 subunit; source: expressed and purified as part of the Dam1 complex as described [3]
T1 sequence (looked up): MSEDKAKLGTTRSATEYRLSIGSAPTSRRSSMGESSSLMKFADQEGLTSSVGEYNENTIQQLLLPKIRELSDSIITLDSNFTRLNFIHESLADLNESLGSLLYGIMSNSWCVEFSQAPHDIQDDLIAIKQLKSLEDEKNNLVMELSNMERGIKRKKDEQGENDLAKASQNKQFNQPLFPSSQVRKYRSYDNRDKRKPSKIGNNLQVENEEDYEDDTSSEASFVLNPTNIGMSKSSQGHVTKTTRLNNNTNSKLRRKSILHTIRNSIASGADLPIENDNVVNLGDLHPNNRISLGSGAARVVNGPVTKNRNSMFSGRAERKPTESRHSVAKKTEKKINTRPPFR

[2] = molecular target: the molecule itself; experiment: cross-linking; BS3, Dam1 complex at 0.05 mg/ml in solution; cross-linked species (approx. 110, 220 and 440 kDa) separated by SDS-PAGE, bands cut out, in-gel trypsin digestion, mass spectrometry
Spc34 [3] = molecular target: T2, Spc34 (budding yeast, UniProt P36131 1-295); experiment: as above; details: both partners purified
T2 construct: Spc34, subunit of the budding yeast Dam1 complex; Subunit inside the recombinant 10-subunit complex; source: expressed and purified as part of the Dam1 complex as described [3]
T2 sequence (looked up): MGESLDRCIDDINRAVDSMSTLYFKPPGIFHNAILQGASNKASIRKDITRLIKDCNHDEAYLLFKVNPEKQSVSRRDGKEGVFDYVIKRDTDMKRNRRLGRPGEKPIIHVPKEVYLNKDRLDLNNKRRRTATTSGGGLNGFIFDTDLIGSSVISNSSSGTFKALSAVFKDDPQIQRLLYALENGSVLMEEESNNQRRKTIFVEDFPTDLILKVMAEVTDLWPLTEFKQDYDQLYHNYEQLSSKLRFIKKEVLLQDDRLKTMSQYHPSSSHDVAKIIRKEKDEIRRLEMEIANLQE

Ask1 [4] = molecular target: T3, Ask1 (budding yeast, UniProt P35734 1-292); experiment: cross-linking; BS3, Dam1 complex at 0.3 mg/ml in BRB80, room temperature 40-60 min, digested in solution, mass spectrometry; some links may be between oligomerizing complexes; details: both partners purified
T3 construct: Ask1, subunit of the budding yeast Dam1 complex; Subunit inside the recombinant 10-subunit complex; source: expressed and purified as part of the Dam1 complex as described [3]
T3 sequence (looked up): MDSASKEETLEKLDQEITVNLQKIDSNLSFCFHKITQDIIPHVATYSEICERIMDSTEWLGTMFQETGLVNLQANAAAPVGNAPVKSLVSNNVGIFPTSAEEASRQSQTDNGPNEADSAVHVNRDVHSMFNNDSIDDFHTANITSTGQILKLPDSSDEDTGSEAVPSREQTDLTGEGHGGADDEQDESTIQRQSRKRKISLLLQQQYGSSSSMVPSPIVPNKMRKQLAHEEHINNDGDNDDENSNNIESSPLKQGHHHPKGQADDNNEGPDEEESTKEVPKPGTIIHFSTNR

Duo1 = molecular target: T4, Duo1 (budding yeast, UniProt P53168 1-247); experiment: as above; details: both partners purified
T4 construct: Duo1, subunit of the budding yeast Dam1 complex; Subunit inside the recombinant 10-subunit complex; also called Duo1 subunit; source: expressed and purified as part of the Dam1 complex as described [3]
T4 sequence (looked up): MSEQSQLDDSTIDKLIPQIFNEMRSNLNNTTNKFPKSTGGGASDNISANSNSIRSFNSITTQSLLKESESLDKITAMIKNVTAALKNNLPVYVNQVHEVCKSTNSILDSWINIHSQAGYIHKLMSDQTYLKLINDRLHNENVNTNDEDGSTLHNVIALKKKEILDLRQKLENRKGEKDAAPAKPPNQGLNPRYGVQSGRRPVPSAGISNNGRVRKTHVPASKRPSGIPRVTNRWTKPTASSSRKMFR

Dam1 [5] = molecular target: T1, Dam1; experiment: as above; details: both partners purified
Dad2 [6] = molecular target: B5; experiment: affinity purification with mass spectrometry; mutant Dam1 complexes purified by the His tag on Hsk3 (Ni-NTA), then Superose 6 size-exclusion chromatography; proteins identified by mass spectrometry; details: partners not purified
Dad4 = molecular target: B6; experiment: as above; details: partners not purified
Ask1 [7] = molecular target: T3, Ask1; experiment: cross-linking; EDC with Sulfo-NHS, Dam1 complex assembled on taxol-stabilized microtubules in BRB80, pellet washed, room temperature 1 h, digested in solution, mass spectrometry; details: both partners purified
Spc19 [8] = molecular target: B3; experiment: cross-linking; BS3, Dam1 complex at 0.05 mg/ml in solution; cross-linked species (approx. 110, 220 and 440 kDa) separated by SDS-PAGE, bands cut out, in-gel trypsin digestion, mass spectrometry; details: both partners purified
Dad2 [9] = molecular target: B5; experiment: as above; details: both partners purified
Spc34 [10] = molecular target: T2, Spc34; experiment: cross-linking; BS3, Dam1 complex at 0.3 mg/ml in BRB80, room temperature 40-60 min, digested in solution, mass spectrometry; some links may be between oligomerizing complexes; details: both partners purified
Spc19 [11] = molecular target: B3; experiment: as above; details: both partners purified

- binding result (Dam1 [1]): binds
B1: Duo1Δ184 (domain or fragment, budding yeast, UniProt P53168 1-183, looked up)
chain: MSEQSQLDDSTIDKLIPQIFNEMRSNLNNTTNKFPKSTGGGASDNISANSNSIRSFNSITTQSLLKESESLDKITAMIKNVTAALKNNLPVYVNQVHEVCKSTNSILDSWINIHSQAGYIHKLMSDQTYLKLINDRLHNENVNTNDEDGSTLHNVIALKKKEILDLRQKLENRKGEKDAAPAK
notes: Duo1, budding yeast; stop codon inserted at position 184; Subunit inside the Dam1 complex Duo1Δ184; also called Duo1 lacking its C terminus (Δ184); source: purified as part of the Dam1 complex Duo1Δ184 (Ni–NTA, Superose 6 size-exclusion chromatography)

B2: Dam1 complex (complex, budding yeast)
chain 1: MSEDKAKLGTTRSATEYRLSIGSAPTSRRSSMGESSSLMKFADQEGLTSSVGEYNENTIQQLLLPKIRELSDSIITLDSNFTRLNFIHESLADLNESLGSLLYGIMSNSWCVEFSQAPHDIQDDLIAIKQLKSLEDEKNNLVMELSNMERGIKRKKDEQGENDLAKASQNKQFNQPLFPSSQVRKYRSYDNRDKRKPSKIGNNLQVENEEDYEDDTSSEASFVLNPTNIGMSKSSQGHVTKTTRLNNNTNSKLRRKSILHTIRNSIASGADLPIENDNVVNLGDLHPNNRISLGSGAARVVNGPVTKNRNSMFSGRAERKPTESRHSVAKKTEKKINTRPPFR
chain 2: MSEQSQLDDSTIDKLIPQIFNEMRSNLNNTTNKFPKSTGGGASDNISANSNSIRSFNSITTQSLLKESESLDKITAMIKNVTAALKNNLPVYVNQVHEVCKSTNSILDSWINIHSQAGYIHKLMSDQTYLKLINDRLHNENVNTNDEDGSTLHNVIALKKKEILDLRQKLENRKGEKDAAPAKPPNQGLNPRYGVQSGRRPVPSAGISNNGRVRKTHVPASKRPSGIPRVTNRWTKPTASSSRKMFR
chain 3: MMASTSNDEEKLISTTDKYFIEQRNIVLQEINETMNSILNGLNGLNISLESSIAVGREFQSVSDLWKTLYDGLESLSDEAPIDEQPTLSQSKTK
chain 4: MDSIDEQIAIKRKELQSLQKITSLTDGLKIQLTELNEQIKEMGMNADSVAQLMNNWDSIINNISQASLGLLQYAEGDYEIGPWKDSKKKESEQSNETGLEAQENDKNDEDNDEDEDLVPLPETMVRIRVDGNE
chain 5: MEHNLSPLQQEVLDKYKQLSLDLKALDETIKELNYSQHRQQHSQQETVSPDEILQEMRDIEVKIGLVGTLLKGSVYSLILQRKQEQESLGSNSK
chain 6: MENPHEQVQANILSRIIGNVKRLNESVAILNQELVTINNRNKNLEIMGAICDNYHSSVQFNLEATNNKKPPL
chain 7: MNANKQRQYNQLAHELRELQTNLQETTKQLDIMSKQCNENLVGQLGKVHGSWLIGSYIYYMEQMLGKTQ
chain 8: MDSASKEETLEKLDQEITVNLQKIDSNLSFCFHKITQDIIPHVATYSEICERIMDSTEWLGTMFQETGLVNLQANAAAPVGNAPVKSLVSNNVGIFPTSAEEASRQSQTDNGPNEADSAVHVNRDVHSMFNNDSIDDFHTANITSTGQILKLPDSSDEDTGSEAVPSREQTDLTGEGHGGADDEQDESTIQRQSRKRKISLLLQQQYGSSSSMVPSPIVPNKMRKQLAHEEHINNDGDNDDENSNNIESSPLKQGHHHPKGQADDNNEGPDEEESTKEVPKPGTIIHFSTNR
chain 9: MTDALEQSVLALEGTVSVLKDSVESLKCANEPSTNLASTMLQTKRVFRLVPEYDVERSKLDLIEEVEPLVRTLGDKLRKSMGRMQRELDTLQQTYELNDLRLKKNISMDDDDALNSPDMGQEYEGRDADDVVMMASSTNEELEELKKLKEKKKQLENKLEILKQK
chain 10: MGESLDRCIDDINRAVDSMSTLYFKPPGIFHNAILQGASNKASIRKDITRLIKDCNHDEAYLLFKVNPEKQSVSRRDGKEGVFDYVIKRDTDMKRNRRLGRPGEKPIIHVPKEVYLNKDRLDLNNKRRRTATTSGGGLNGFIFDTDLIGSSVISNSSSGTFKALSAVFKDDPQIQRLLYALENGSVLMEEESNNQRRKTIFVEDFPTDLILKVMAEVTDLWPLTEFKQDYDQLYHNYEQLSSKLRFIKKEVLLQDDRLKTMSQYHPSSSHDVAKIIRKEKDEIRRLEMEIANLQE
notes: Dam1, budding yeast; Duo1, budding yeast; Dad1, budding yeast; Dad2, budding yeast; Dad3, budding yeast; Dad4, budding yeast; Hsk3, budding yeast; Ask1, budding yeast; Spc19, budding yeast; Spc34, budding yeast; 10-subunit complex; also called heterodecameric Dam1 complex; wild-type Dam1 complex; source: expressed and purified as described [3]; copies: + + + + + + + + +
- stoichiometry N [2]: 2

Binder: B3
- binding result (Spc34 [3]): binds
- binding result (Ask1 [4]): binds
- binding result (Duo1): binds
- binding result (Dam1 [5]): binds

- binding result (Dad2 [6]): binds
- binding result (Dad4): binds
- binding result (Dam1 [5]): binds
B4: Hsk3 (natural protein, budding yeast, UniProt P69852 1-69, looked up)
chain: MNANKQRQYNQLAHELRELQTNLQETTKQLDIMSKQCNENLVGQLGKVHGSWLIGSYIYYMEQMLGKTQ
notes: Hsk3, subunit of the budding yeast Dam1 complex; Subunit inside the recombinant 10-subunit complex; also called his-tagged Hsk3; source: expressed and purified as part of the Dam1 complex as described [3]; mutant complexes by Ni-NTA and Superose 6

Binder: B5
- binding result (Ask1 [7]): binds
- binding result (Spc19 [8]): binds
- binding result (Dam1 [5]): binds

Binder: B6
- binding result (Ask1 [7]): binds
- binding result (Dad2 [9]): binds
- binding result (Spc34 [10]): binds
- binding result (Spc19 [11]): binds
- binding result (Dam1 [5]): binds
